According to IntAct's records for PubMed 29892012:

B1: Inositol polyphosphate 5-phosphatase K (Homo sapiens), Q9BT40 (parent)
chain: MSSRKLSGPKGRRLSIHVVTWNVASAAPPLDLSDLLQLNNRNLNLDIYVIGLQELNSGIISLLSDAAFNDSWSSFLMDVLSPLSFIKVSHVRMQGILLLVFAKYQHLPYIQILSTKSTPTGLFGYWGNKGGVNICLKLYGYYVSIINCHLPPHISNNYQRLEHFDRILEMQNCEGRDIPNILDHDLIIWFGDMNFRIEDFGLHFVRESIKNRCYGGLWEKDQLSIAKKHDPLLREFQEGRLLFPPTYKFDRNSNDYDTSEKKRKPAWTDRILWRLKRQPCAGPDTPIPPASHFSLSLRGYSSHMTYGISDHKPVSGTFDLELKPLVSAPLIVLMPEDLWTVENDMMVSYSSTSDFPSSPWDWIGLYKVGLRDVNDYVSYAWVGDSKVSCSDNLNQVYIDISNIPTTEDEFLLCYYSNSLRSVVGISRPFQIPPGSLREDPLGEAQPQI
partner: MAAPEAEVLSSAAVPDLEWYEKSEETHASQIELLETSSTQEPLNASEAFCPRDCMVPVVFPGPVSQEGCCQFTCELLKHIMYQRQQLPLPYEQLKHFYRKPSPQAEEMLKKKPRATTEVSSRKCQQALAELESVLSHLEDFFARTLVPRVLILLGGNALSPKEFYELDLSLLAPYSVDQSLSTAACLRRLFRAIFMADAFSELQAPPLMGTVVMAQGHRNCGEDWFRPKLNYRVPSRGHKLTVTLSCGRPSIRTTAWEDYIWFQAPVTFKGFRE
B2: Synaptotagmin-16 (Homo sapiens), Q17RD7 (parent)
chain: MVLAMASQDVQNFFQPFSSWISRVYEALQQAGDMLSASLVNISKQDSKLSDKLDQDLDNIQIQETYFEDEEQDNDWSQEDANSLFLEVDHFSCCNSDLQDSAQNSSPSLSQHAKDSCSTMSQWPNWASDDRKLPHVLSSIAEEEHHLEKQRSGLQHGFDSQLPGTLETVNGKKQVNSFGDDEELSTSSDSDEEVIKQFEISVSRSQSFRSVTSEKGKQTGLEQKPKFSRSLLTHGEDGTEVSACEDLDGASQRRYSENLSYGEDDHIPAHSQSPCERGDAKHHGTSHQESSVVQSLRRQSTEGSLEMETAFNSRGFEDSYATDSSSMWSPEEQDRTNLQVPSGVSEPISKCGDLDVIFEYRAASQKLTVTIVRAQGLPDKDRSGVNSWQVHVVLLPGKKHRGRTNIQRGPNPVFREKVTFAKLEPRDVAACAVRFRLYAARKMTRERMMGEKLFYLSHLHPEGEMKVTLVLEPRSNISSGGSPLSPSAVSHSDSTSSTQSLSHGGAPELLVGLSYNATTGRLSVEMIKGSHFRNLAVNRAPDTYGKLFLLNSVGQEMSRCKTSIRRGQPNPVYKETFVFQVALFQLSDVTLMISVYNRRTMKRKEMIGWIALGQNSSGEEEQDHWEEMKETKGQQICRWHTLLES
B3: CD151 antigen (Homo sapiens), P48509 (parent)
chain: MGEFNEKKTTCGTVCLKYLLFTYNCCFWLAGLAVMAVGIWTLALKSDYISLLASGTYLATAYILVVAGTVVMVTGVLGCCATFKERRNLLRLYFILLLIIFLLEIIAGILAYAYYQQLNTELKENLKDTMTKRYHQPGHEAVTSAVDQLQQEFHCCGSNNSQDWRDSEWIRSQEAGGRVVPDSCCKTVVALCGQRDHASNIYKVEGGCITKLETFIQEHLRVIGAVGIGIACVQVFGMIFTCCLYRSLKLEHY
B4: Leucine-zipper-like transcriptional regulator 1 (Homo sapiens), Q8N653 (parent)
chain: MAGPGSTGGQIGAAALAGGARSKVAPSVDFDHSCSDSVEYLTLNFGPFETVHRWRRLPPCDEFVGARRSKHTVVAYKDAIYVFGGDNGKTMLNDLLRFDVKDCSWCRAFTTGTPPAPRYHHSAVVYGSSMFVFGGYTGDIYSNSNLKNKNDLFEYKFATGQWTEWKIEGRLPVARSAHGATVYSDKLWIFAGYDGNARLNDMWTIGLQDRELTCWEEVAQSGEIPPSCCNFPVAVCRDKMFVFSGQSGAKITNNLFQFEFKDKTWTRIPTEHLLRGSPPPPQRRYGHTMVAFDRHLYVFGGAADNTLPNELHCYDVDFQTWEVVQPSSDSEVGGAEVPERACASEEVPTLTYEERVGFKKSRDVFGLDFGTTSAKQPTQPASELPSGRLFHAAAVISDAMYIFGGTVDNNIRSGEMYRFQFSCYPKCTLHEDYGRLWESRQFCDVEFVLGEKEECVQGHVAIVTARSRWLRRKITQARERLAQKLEQEAAPVPREAPGVAAGGARPPLLHVAIREAEARPFEVLMQFLYTDKIKYPRKGHVEDVLLIMDVYKLALSFQLCRLEQLCRQYIEASVDLQNVLVVCESAARLQLSQLKEHCLNFVVKESHFNQVIMMKEFERLSSPLIVEIVRRKQQPPPRTPLDQPVDIGTSLIQDMKAYLEGAGAEFCDITLLLDGHPRPAHKAILAARSSYFEAMFRSFMPEDGQVNISIGEMVPSRQAFESMLRYIYYGEVNMPPEDSLYLFAAPYYYGFYNNRLQAYCKQNLEMNVTVQNVLQILEAADKTQALDMKRHCLHIIVHQFTKVSKLPTLRSLSQQLLLDIIDSLASHISDKQCAELGADI

Variants of: B1
Conditions: with md2bp_human MAD2L1BP

effect of a mutation on the interaction | Variant
disrupting interaction strength | R437K

Variants of: B2
Conditions: with praf1_human RABAC1, Q9UI14
praf1_human RABAC1, Q9UI14, sequence (Q9UI14 whole entry): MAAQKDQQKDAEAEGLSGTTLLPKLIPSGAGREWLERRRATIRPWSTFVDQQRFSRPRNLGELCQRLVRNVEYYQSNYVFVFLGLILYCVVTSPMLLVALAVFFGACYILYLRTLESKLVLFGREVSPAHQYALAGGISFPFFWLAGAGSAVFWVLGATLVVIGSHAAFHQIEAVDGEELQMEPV

effect of a mutation on the interaction | Variant
with no effect | R441W

Variants of: B2
Conditions: with rtn4_human RTN4, Q9NQC3
rtn4_human RTN4, Q9NQC3, sequence (Q9NQC3 whole entry): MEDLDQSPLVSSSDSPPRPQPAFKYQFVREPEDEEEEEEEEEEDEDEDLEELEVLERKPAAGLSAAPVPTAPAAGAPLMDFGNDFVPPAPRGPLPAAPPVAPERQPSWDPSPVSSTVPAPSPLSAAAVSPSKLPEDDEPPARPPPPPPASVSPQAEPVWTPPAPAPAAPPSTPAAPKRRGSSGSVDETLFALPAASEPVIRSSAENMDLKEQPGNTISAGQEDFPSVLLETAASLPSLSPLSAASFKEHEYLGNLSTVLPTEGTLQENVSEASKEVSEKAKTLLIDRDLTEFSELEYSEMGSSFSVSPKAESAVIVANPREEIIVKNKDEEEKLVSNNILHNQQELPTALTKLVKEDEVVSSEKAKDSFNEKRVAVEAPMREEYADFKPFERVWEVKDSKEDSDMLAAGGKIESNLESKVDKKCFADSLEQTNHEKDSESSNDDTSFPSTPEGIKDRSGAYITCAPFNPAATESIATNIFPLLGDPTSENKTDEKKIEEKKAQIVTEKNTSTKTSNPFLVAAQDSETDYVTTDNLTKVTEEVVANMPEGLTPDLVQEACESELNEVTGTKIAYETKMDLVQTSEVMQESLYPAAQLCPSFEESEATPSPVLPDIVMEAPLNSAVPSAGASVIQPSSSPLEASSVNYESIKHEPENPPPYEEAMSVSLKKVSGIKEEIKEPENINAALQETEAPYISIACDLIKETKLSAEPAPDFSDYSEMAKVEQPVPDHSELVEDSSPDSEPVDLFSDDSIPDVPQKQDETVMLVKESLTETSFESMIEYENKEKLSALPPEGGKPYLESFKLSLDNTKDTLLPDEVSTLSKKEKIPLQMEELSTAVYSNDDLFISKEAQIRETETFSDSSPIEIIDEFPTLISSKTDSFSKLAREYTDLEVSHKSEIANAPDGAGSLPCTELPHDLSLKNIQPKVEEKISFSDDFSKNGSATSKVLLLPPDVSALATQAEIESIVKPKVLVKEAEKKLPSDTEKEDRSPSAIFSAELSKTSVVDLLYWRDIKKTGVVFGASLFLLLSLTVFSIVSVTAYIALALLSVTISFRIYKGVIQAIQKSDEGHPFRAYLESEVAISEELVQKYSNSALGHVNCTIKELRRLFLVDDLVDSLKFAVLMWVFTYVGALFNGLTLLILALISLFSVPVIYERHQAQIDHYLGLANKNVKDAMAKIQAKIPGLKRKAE

effect of a mutation on the interaction | Variant
with no effect | R441W

Variants of: B3
Conditions: with astrc_human GRAMD1C

effect of a mutation on the interaction | Variant
with no effect | S158T

Variants of: B3
Conditions: with astrc_human GRAMD1C
Remark: another data set of the same source

effect of a mutation on the interaction | Variant
with no effect | A67V

Variants of: B4
Conditions: with gcp4_human TUBGCP4, Q9UGJ1
gcp4_human TUBGCP4, Q9UGJ1, sequence (Q9UGJ1 whole entry): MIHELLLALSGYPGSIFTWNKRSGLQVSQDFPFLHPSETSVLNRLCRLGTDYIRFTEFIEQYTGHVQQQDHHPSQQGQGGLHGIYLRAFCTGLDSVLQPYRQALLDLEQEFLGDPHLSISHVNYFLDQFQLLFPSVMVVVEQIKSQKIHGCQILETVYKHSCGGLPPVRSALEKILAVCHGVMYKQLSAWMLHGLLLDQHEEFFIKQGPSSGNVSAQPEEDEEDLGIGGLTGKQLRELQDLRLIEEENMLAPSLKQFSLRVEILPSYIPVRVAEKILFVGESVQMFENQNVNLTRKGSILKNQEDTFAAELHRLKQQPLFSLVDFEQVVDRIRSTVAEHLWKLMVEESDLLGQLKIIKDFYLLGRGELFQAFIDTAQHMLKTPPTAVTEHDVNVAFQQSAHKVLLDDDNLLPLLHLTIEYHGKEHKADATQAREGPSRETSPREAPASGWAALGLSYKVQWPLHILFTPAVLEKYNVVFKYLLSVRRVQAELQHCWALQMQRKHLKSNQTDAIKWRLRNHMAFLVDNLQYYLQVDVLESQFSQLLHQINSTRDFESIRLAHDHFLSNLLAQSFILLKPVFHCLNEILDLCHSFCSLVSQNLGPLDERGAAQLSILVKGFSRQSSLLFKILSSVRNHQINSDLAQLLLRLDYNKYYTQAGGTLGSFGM

effect of a mutation on the interaction | Variant
disrupting interaction strength | G663V
